Measurements from patent US20150307621A1 (Kyowa Kirin, published 2015).

B1: human anti-CD98 monoclonal antibody K3 (antibody, V domains shown)
VH: EVQLVQSGAEVKKPGESLKISCKGSGYRFTDYWIGWVRQMPGKGLEWMGIFYPGDSDARYSPSFQGQVTISADKSINTAYLQWSSLKASDTAMYYCARRRDIVGGTDYWGQGTLVTVSS
VL: EIVLTQSPATLSLSPGERATLSCRASQSVSSYLDWYQQKPGQAPRLLIYDASSRATGIPARFSGSGSGTDFTLTISSLEPEDFAVYYCQQRSNWITFGQGTRLEIK
notes: Recombinant human IgG1/kappa (variable regions put into the N5KG1-Val Lark vector); The entries begin with the leader peptide; FITC-labelled in some assays; also called 4-32-9; K3IgG1
B2: human anti-CD98 monoclonal antibody 1-40-1 (antibody, V domains shown)
VH: EVQLVESGGGVVRPGGSLRLSCAASGFTFDDYGMTWVRQAPGKGLEWVSTISWNGGGTGYADSVKGRFTISRDNAKNSLYLQMNSLRAEDTALYYCAGYCIITGCYADYWGQGTLVTVSS
VL: EIVLTQSPATLSLSPGERATLSCRASQSVSSYLAWYQQKPGQAPRLLIYDASNRATGIPARFSGSGSGTDFTLTISSLEPEDFAVYYCQQRSNWWTFGQGTKVEIK
notes: Recombinant human IgG1/kappa (N5KG1-Val Lark vector); Entries begin with the leader peptide; also called 1-40-1IgG1
B3: human anti-CD98 monoclonal antibody C2IgG1 (antibody, V domains shown)
VH: QLQLQESGPGLVKPSETLSLTCTVSGGSISSSSYYWGWIRQPPGKGLEWIGSIYYSGSTYYNPSLKSRVTISVDTSKSQFFLKLSSVTAADTAVYYCARQGTGLALFDYWGQGTLVTVSS
VL: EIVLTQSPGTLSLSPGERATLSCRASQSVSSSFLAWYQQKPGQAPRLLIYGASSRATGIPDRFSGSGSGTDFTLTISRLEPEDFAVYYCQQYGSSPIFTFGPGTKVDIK
notes: Recombinant IgG1/kappa form of the C2 hybridoma antibody (hybridoma C2 is IgM); The entries begin with residues translated from the cloning site (STT, RSLT) and the leader peptide; also called 4-35-14
B4: human anti-CD98 monoclonal antibody 3-69-6 (antibody, V domains shown)
VH: QVQLVQSGAEVKKPGASVKVSCKASGYTFTSYGISWMRQAPGQGLEWMGWISAYNGNTNYVQKFQDRVTMTRDTSTSTAYMELRSLRSDDTAVYYCARDRGSNWYGWFDPWGQGTLVTVSS
VL: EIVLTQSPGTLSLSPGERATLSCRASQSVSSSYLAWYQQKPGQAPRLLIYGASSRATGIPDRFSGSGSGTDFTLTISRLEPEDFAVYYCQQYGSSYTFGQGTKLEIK
notes: Recombinant human IgG1/kappa (N5KG1-Val Lark vector); Entries begin with residues translated from the cloning site (RRPT, RSLT) and the leader peptide; also called 3-69-6IgG1

Tests used:
[1] = target: T1, mouse CD98 (mouse, UniProt P10852 1-526, limits assumed); experiment: not described at this place
T1 construct: also called mCD98
T1 sequence (looked up): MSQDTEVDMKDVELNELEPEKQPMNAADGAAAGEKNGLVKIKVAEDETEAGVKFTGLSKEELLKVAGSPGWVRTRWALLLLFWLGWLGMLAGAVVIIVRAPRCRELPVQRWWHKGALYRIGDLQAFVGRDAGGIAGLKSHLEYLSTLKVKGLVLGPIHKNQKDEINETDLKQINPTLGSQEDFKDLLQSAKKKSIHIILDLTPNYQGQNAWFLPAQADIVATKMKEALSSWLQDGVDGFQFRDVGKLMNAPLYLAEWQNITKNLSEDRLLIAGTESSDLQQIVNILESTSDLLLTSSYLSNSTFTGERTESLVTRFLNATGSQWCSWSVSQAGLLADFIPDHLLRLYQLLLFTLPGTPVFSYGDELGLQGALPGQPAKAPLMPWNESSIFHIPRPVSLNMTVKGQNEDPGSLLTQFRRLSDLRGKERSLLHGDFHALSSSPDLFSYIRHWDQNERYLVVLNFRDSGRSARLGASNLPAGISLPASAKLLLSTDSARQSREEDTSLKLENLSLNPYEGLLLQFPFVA

[2] = target: T2, human LAT1-EGFP on L929 cells (human, UniProt Q01650 1-507); experiment: FACS on hLAT1-E-expressing L929 cells
T2 construct: L929 cells transfected with pEF1/hLAT1-EGFP alone; also called hLAT1-E; hLAT1-EGFP; not shown: EGFP and the short vector-encoded linker (pEGFP-N1) at the C terminus of hLAT1

[3] = target: T3, human CD98 (human, UniProt P08195 2-529); experiment: FACS, antibody 5 µg/mL, hCD98-expressing L929 cells
T3 construct: also called hCD98; 4F2
T3 sequence: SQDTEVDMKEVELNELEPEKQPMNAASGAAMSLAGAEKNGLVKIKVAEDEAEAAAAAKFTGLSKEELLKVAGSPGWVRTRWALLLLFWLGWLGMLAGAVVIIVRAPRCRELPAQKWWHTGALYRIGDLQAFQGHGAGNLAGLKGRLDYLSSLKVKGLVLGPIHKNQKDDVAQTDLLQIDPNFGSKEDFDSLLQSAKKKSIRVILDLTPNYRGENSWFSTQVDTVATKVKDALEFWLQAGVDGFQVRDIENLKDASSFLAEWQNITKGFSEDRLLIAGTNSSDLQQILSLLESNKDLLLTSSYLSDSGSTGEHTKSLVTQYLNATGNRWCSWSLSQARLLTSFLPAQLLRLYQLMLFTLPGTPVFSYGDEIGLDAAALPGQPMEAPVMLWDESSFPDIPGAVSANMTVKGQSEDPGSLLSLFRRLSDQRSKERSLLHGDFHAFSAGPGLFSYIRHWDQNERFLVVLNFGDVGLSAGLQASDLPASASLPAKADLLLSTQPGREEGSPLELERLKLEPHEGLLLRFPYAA

[4] = target: T4, CD98 on normal human aortic endothelial cells (HAEC) (human, UniProt P08195 2-529); experiment: FACS on cultured HAEC, antibody 3.2 ng/mL to 50 µg/mL
T4 sequence: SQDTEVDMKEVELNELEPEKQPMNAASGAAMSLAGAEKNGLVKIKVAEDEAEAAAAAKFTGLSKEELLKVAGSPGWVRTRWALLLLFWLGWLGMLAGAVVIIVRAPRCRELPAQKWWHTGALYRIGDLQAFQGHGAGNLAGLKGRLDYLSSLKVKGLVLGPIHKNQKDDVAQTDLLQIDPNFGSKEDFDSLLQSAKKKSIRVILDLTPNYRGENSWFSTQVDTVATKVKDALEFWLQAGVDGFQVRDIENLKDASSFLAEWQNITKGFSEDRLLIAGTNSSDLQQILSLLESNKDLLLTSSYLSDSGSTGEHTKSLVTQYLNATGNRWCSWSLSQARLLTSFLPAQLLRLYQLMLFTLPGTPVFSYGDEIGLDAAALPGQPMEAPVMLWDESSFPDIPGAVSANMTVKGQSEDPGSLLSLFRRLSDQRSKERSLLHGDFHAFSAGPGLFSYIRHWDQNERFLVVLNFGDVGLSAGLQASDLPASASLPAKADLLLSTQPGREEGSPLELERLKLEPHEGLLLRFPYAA

[5] = target: T5, human CD98/human LAT1-EGFP complex on transfected CT26 or L929 cells (human, UniProt P08195 1-529; Q01650 1-507, CD98 and LAT1 are linked by a disulfide bond on the cell membrane); experiment: FACS, antibody 5 µg/mL, transfected CT26 or L929 cells
T5 construct: also called hCD98/hLAT1-E; hCD98/hLAT1; not shown: EGFP and the short vector-encoded linker (pEGFP-N1) fused to the intracellular C terminus of hLAT1

[6] = target: T6, CD98 on human peripheral blood monocytes, PHA-activated T cells and activated B cells (human, UniProt P08195 2-529); experiment: FACS with FITC-labeled antibody 5 µg/mL on human peripheral blood cells
T6 sequence: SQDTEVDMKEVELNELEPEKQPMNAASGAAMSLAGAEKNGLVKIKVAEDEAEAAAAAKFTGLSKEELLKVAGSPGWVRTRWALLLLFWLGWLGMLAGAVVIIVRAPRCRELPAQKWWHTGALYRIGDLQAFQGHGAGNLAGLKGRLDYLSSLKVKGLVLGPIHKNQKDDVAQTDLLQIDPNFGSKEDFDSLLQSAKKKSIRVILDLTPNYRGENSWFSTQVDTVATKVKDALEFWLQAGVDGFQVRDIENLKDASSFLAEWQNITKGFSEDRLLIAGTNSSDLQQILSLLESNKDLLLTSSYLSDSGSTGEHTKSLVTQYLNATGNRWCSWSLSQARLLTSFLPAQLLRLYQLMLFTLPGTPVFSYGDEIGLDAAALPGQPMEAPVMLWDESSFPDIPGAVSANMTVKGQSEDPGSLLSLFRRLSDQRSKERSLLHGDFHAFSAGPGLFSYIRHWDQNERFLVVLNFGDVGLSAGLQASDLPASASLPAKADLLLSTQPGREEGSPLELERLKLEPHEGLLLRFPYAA

T2 sequence (Q01650 whole entry): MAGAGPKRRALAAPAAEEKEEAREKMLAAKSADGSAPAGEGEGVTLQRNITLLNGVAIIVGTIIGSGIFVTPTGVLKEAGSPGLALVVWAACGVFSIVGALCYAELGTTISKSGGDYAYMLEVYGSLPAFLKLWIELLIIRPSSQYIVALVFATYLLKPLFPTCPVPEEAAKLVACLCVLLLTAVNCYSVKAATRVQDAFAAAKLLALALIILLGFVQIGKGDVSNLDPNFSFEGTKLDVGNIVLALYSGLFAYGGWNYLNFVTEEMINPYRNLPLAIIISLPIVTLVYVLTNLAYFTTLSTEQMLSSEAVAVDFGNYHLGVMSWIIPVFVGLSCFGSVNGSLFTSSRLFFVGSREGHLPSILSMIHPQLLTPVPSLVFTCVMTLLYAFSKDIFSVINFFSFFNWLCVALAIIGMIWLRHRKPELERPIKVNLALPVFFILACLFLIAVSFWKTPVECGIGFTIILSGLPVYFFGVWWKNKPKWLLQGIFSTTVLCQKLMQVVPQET
T5 sequence (Q01650 whole entry, the tested form may be a part, one chain of several): as the sequence (Q01650 whole entry) above

Binder | binding result [1] | binding result [2] | binding result [3] | binding result [4] | binding result [5] | binding result [6]
B1 | no binding | no binding (tested: 5 µg/mL) | binds | binds | binds | binds
B2 | no binding | no binding (tested: 5 µg/mL) | binds | binds | binds | binds
B3 | no binding | no binding (tested: 5 µg/mL) | – | – | – | –
B4 | no binding | no binding (tested: 5 µg/mL) | – | – | – | –
